What was measured:
CXCR1 = target: T1, CXCR1 (UniProt P25024 1-350, limits assumed); test: binding to cells expressing CXCR1, fluorescence counts (FL1 Counts) against Log M
T1 construct: whole, on cells; The cell line is not described
T1 sequence (looked up): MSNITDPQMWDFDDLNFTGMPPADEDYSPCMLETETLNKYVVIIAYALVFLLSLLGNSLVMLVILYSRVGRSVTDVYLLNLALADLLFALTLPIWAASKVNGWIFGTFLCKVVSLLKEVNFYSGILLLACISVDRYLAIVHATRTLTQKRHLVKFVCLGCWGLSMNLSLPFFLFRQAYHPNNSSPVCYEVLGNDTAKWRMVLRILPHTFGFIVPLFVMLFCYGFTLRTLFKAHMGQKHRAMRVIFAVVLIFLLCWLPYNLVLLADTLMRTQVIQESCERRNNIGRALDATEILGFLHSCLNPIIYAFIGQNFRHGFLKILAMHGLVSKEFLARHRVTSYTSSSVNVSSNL

cynomolgus CCR9 = target: T2, cynomolgus CCR9 (cynomolgus, UniProt Q0H741 1-369); test: binding to HEK cells expressing cynomolgus CCR9, fluorescence counts (FL1 Counts) against Log M
T2 construct: Overexpressed on HEK cells, or endogenous on cynomolgus PBMC; also called cynomolgus CCR9A; Cyno HEK
T2 sequence: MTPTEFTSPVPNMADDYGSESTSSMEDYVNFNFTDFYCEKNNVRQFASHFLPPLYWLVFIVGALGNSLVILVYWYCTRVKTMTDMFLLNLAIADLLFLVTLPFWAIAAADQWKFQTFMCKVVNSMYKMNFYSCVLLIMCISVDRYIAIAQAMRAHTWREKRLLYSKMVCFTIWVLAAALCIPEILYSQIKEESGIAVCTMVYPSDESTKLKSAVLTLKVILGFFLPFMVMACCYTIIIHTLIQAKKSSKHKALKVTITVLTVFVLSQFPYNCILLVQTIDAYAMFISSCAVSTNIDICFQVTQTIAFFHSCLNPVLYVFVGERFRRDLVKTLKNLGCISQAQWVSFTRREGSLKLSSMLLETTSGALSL

human CCR9B = target: T3, human CCR9B (human, UniProt P51686 13-369); test: binding to HEK cells expressing human CCR9B, fluorescence counts (FL1 Counts) against Log M
T3 construct: Overexpressed on HEK cells; also called Hu B HEK; hCCR9 isoform B
T3 sequence: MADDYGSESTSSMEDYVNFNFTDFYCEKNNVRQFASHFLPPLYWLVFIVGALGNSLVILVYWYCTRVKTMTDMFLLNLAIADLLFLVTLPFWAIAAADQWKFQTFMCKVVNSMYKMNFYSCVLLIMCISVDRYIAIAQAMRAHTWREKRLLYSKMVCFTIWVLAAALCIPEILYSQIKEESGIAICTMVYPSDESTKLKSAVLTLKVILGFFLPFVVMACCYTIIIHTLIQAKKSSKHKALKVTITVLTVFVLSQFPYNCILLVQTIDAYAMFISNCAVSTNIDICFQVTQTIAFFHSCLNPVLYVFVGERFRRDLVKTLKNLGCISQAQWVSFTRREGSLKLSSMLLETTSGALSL

CXCR2 = target: T4, CXCR2 (UniProt P25025 1-360, limits assumed); test: binding to cells expressing CXCR2, fluorescence counts (FL1 Counts) against Log M
T4 construct: whole, on cells; The cell line is not described
T4 sequence (looked up): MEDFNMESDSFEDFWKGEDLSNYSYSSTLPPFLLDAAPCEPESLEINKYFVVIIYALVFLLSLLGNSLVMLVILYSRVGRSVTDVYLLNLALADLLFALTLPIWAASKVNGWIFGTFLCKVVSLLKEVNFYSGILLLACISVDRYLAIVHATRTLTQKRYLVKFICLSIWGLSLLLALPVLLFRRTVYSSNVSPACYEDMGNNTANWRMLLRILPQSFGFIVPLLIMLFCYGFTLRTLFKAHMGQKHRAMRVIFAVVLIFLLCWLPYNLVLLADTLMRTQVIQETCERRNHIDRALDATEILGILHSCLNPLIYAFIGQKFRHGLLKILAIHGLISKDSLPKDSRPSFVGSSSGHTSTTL

CCR8 = target: T5, CCR8 (UniProt P51685 1-355, limits assumed); test: binding to cells expressing CCR8, fluorescence counts (FL1 Counts) against Log M
T5 construct: whole, on cells; The cell line is not described

CCR5 = target: T6, CCR5 (UniProt P51681 1-352, limits assumed); test: binding to cells expressing CCR5, fluorescence counts (FL1 Counts) against Log M
T6 construct: whole, on cells; The cell line is not described
T6 sequence (P51681 whole entry): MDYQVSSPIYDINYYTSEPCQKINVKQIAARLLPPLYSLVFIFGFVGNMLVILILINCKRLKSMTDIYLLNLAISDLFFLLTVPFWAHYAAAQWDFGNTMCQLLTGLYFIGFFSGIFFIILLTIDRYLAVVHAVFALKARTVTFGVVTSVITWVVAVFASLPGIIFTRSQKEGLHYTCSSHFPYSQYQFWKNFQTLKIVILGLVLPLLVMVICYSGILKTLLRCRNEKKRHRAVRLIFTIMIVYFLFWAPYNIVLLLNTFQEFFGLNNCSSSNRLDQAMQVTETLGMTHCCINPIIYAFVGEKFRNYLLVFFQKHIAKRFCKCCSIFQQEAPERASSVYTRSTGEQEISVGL

T5 sequence (P51685 whole entry): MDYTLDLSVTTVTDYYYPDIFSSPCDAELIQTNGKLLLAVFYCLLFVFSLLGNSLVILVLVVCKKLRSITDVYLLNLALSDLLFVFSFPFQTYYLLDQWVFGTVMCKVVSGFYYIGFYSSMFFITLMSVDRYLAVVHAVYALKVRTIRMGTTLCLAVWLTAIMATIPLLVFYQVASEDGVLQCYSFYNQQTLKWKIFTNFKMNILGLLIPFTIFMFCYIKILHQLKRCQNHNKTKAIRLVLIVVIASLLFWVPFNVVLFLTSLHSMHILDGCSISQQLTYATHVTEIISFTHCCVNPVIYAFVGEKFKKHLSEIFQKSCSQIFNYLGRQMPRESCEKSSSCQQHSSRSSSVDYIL

B1: humanised AB1020243 afuc (AB1020243-fgl) (antibody, V domains shown)
VH: QVQLVQSGAEVKKPGASVKVSCKASGYTFTSYWMHWVRQAPGQGLEWIGVIYPGNSDTRYNQKFKGRVTITRDTSASTAYMELSSLRSEDTAVYYCTRDYYSNYVYYYAMDYWGQGTTVTVSS
VL: DIVMTQTPLSLPVTPGEPASISCRSSQSLVHSNGNTYLHWYLQKPGQSPQLLIYKVSNRFSGVPDRFSGSGSGTDFTLKISRVEAEDVGVYYCSQSTHVPWTFGQGTKLEIK
modifications: afucosylated form; in the LigandTracer assay DyLight 650 Maleimide on an engineered cysteine residue in the CH2 region
notes: Human IgG1 format is stated for LigandTracer; Full chains are not tied to the tested lot
- binding result (CXCR1): no binding (tested: Log M about -6.5 (about 3e-7 M))
- EC50 (read off the curve) (cynomolgus CCR9): ~400 pM
- binding result (human CCR9B): binds
- binding result (CXCR2): no binding (tested: Log M about -6.5 (about 3e-7 M))
- binding result (CCR8): no binding (tested: Log M about -6.5 (about 3e-7 M))
- binding result (CCR5): no binding (tested: Log M about -6.5 (about 3e-7 M))

From patent US20250084174A1 (AstraZeneca / MedImmune, published 2025)
